We go through 32 molecules from paper PMC10786891, “Massively parallel profiling of RNA-targeting CRISPR-Cas13d”.

Sequences and labels used below:
T1: EsCas13d, nuclease-dead (Eubacterium siraeum, UniProt B0MS50, R295A;H300A;R849A;H854A)
T1 sequence: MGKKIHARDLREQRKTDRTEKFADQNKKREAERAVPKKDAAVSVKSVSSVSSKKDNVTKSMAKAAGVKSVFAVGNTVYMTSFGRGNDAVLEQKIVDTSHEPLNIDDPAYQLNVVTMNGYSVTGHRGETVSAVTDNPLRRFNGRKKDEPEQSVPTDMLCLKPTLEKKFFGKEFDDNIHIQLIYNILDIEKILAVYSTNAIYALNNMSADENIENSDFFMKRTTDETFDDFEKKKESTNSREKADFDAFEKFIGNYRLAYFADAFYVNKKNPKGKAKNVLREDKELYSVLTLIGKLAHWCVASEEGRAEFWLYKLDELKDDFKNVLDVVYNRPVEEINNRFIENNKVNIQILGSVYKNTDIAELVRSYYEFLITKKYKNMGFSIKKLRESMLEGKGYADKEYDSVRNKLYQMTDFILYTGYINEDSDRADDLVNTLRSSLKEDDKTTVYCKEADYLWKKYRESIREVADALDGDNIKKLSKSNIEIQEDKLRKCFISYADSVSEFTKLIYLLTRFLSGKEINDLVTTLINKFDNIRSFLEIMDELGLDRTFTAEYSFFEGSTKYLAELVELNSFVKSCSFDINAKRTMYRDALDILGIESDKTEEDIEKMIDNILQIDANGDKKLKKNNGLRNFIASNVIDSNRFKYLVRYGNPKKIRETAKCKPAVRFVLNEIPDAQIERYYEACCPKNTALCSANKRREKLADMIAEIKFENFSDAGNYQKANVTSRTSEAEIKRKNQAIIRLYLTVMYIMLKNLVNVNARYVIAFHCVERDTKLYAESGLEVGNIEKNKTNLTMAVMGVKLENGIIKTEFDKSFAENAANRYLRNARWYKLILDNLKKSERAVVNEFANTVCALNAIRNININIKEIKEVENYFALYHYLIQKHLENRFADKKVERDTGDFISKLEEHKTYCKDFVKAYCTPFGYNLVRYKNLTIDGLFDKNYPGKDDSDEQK

B1: target 1 insU 3' of 18,insU 3' of 14 (mixed)
RNA 1: CACCCGUGCAAAAAUGCAGGGGUCUAAAACUGAGCGGAUAACCUCUCUAUGG
RNA 2: GGGAAUGGAUCCACAUCUACGAAUUCGUACCAUAUGAGAUGGUUAUCCGCUCACCGAGAUCGGAAGAGCACACGU
B2: target 1 U19A,C22U (mixed)
RNA 1: B1 RNA 1
RNA 2: GGGAAUGGAUCCACAUCUACGAAUUCGUAUCAAAGAGAGGUUAUCCGCUCACCGAGAUCGGAAGAGCACACGU
B3: target 1 insU 3' of 21,insA 3' of 5 (mixed)
RNA 1: B1 RNA 1
RNA 2: GGGAAUGGAUCCACAUCUACGAAUUCGUACCUAUAGAGAGGUUAUCCGACUCACCGAGAUCGGAAGAGCACACGU
B4: target 1 C4G,G5A (mixed)
RNA 1: B1 RNA 1
RNA 2: B2 RNA 2 with U30C, A33U, G47A, C48G
B5: target 1 insG 3' of 10,insA 3' of 5 (mixed)
RNA 1: B1 RNA 1
RNA 2: GGGAAUGGAUCCACAUCUACGAAUUCGUACCAUAGAGAGGUUGAUCCGACUCACCGAGAUCGGAAGAGCACACGU
B6: target 1 insU 3' of 13,insA 3' of 4 (mixed)
RNA 1: B1 RNA 1
RNA 2: B5 RNA 2 with G40U, U41G, G43U, A49C, C50A
B7: target 1 insU 3' of 12,insG 3' of 11 (mixed)
RNA 1: B1 RNA 1
RNA 2: B5 RNA 2 with A44U, U45A, C46U, G48C, A49G
B8: target 1 insC 3' of 15,insC 3' of 11 (mixed)
RNA 1: B1 RNA 1
RNA 2: B1 RNA 2 with U35G, G36A, A37G, G38C, U40G, G42U, U43C
B9: target 1 insU 3' of 13,insG 3' of 6 (mixed)
RNA 1: B1 RNA 1
RNA 2: B5 RNA 2 with G40U, U41G, G43U, A49G
B10: target 1 insU 3' of 21,insU 3' of 5 (mixed)
RNA 1: B1 RNA 1
RNA 2: B3 RNA 2 with A49U
B11: target 1 insA 3' of 19,insG 3' of 19 (mixed)
RNA 1: B1 RNA 1
RNA 2: B1 RNA 2 with U35G, G36A, A37G, G38A, A39G, U40A
B12: target 1 insU 3' of 20,insA 3' of 12 (mixed)
RNA 1: B1 RNA 1
RNA 2: B1 RNA 2 with A34U, U35A, U40G, G42A
B13: target 1 insU 3' of 4,insC 3' of 1 (mixed)
RNA 1: B1 RNA 1
RNA 2: GGGAAUGGAUCCACAUCUACGAAUUCGUACCAUAGAGAGGUUAUCCGCUUCACCCGAGAUCGGAAGAGCACACGU
B14: target 1 insU 3' of 4,insA 3' of 2 (mixed)
RNA 1: B1 RNA 1
RNA 2: B13 RNA 2 with C53A
B15: target 1 C2G,G12U (mixed)
RNA 1: B1 RNA 1
RNA 2: B2 RNA 2 with U30C, A33U, G40U, C50G
B16: target 1 C2G,C21A (mixed)
RNA 1: B1 RNA 1
RNA 2: B2 RNA 2 with U30C, C31A, A33U, C50G
B17: target 1 insA 3' of 11,insA 3' of 7 (mixed)
RNA 1: B1 RNA 1
RNA 2: B5 RNA 2 with U42A, G43U, C47A, G48C, A49G
B18: target 1 U3C,C4A (mixed)
RNA 1: B1 RNA 1
RNA 2: B2 RNA 2 with U30C, A33U, C48A, U49C
B19: target 1 U10A,A20U (mixed)
RNA 1: B1 RNA 1
RNA 2: B2 RNA 2 with U30C, A32U, A33U, U42A
B20: target 1 U10A,G12U (mixed)
RNA 1: B1 RNA 1
RNA 2: B2 RNA 2 with U30C, A33U, G40U, U42A
B21: target 1 A9C,G12C (mixed)
RNA 1: B1 RNA 1
RNA 2: B2 RNA 2 with U30C, A33U, G40C, A43C
B22: target 1 insU 3' of 6,insA 3' of 6 (mixed)
RNA 1: B1 RNA 1
RNA 2: B5 RNA 2 with G43A, A44U, U45C, C47U, G48A, A49G
B23: target 1 insG 3' of 3,insU 3' of 2 (mixed)
RNA 1: B1 RNA 1
RNA 2: B13 RNA 2 with U50G, A52U, C53A
B24: target 1 del8,del18 (mixed)
RNA 1: B1 RNA 1
RNA 2: GGGAAUGGAUCCACAUCUACGAAUUCGUACCAUGAGAGGUUACCGCUCACCGAGAUCGGAAGAGCACACGU
B25: target 1 insC 3' of 20,insC 3' of 8 (mixed)
RNA 1: B1 RNA 1
RNA 2: B3 RNA 2 with U32A, A33C, G48C, A49G
B26: target 1 U10C,G15A (mixed)
RNA 1: B1 RNA 1
RNA 2: B2 RNA 2 with U30C, A33U, G37A, U42C
B27: target 1 del15 (mixed)
RNA 1: B1 RNA 1
RNA 2: GGGAAUGGAUCCACAUCUACGAAUUCGUACCAUAGAAGGUUAUCCGCUCACCGAGAUCGGAAGAGCACACGU
B28: target 1 G5U,G15A (mixed)
RNA 1: B1 RNA 1
RNA 2: B2 RNA 2 with U30C, A33U, G37A, G47U
B29: target 1 C2U,C7G (mixed)
RNA 1: B1 RNA 1
RNA 2: B2 RNA 2 with U30C, A33U, C45G, C50U
B30: target 1 A9U,G17C (mixed)
RNA 1: B1 RNA 1
RNA 2: B2 RNA 2 with U30C, A33U, G35C, A43U
B31: target 1 A9C,U10A (mixed)
RNA 1: B1 RNA 1
RNA 2: B2 RNA 2 with U30C, A33U, U42A, A43C
B32: target 1 insU 3' of 15,insA 3' of 6 (mixed)
RNA 1: B1 RNA 1
RNA 2: B5 RNA 2 with A38U, G39A, U41G, G43U, G48A, A49G

Where a chain is given by its changes, count along the chain named. In names and notes the source's numbering stands.

For the series, the target named is T1, EsCas13d, nuclease-dead. As to the kind of experiment: crRNA (strand 1, pre-loaded); Mg2+; 40 mM Tris-HCl pH 7.5, 150 mM NaCl, 6 mM MgCl2, 1 mM DTT, 0.1% Tween-20, 0.2 mg/ml BSA; 25 C; 10 min per concentration, then washed. The following applies: tags: His6-TwinStrep-SUMO cleaved; N-terminal SNAP kept (SNAP-Surface 488); label: 3' end held by stalled T7 RNA polymerase.
The term Kd denotes the free concentration of one partner at which half of the binding sites on the other are occupied at equilibrium, for simple one-to-one binding. Molecule B1 displayed a Kd of 73 ± 12 nM.
Next, B2: 70 ± 19 nM.
Next, B3: 28 ± 6 nM.
B4: the Kd worked out at 83 ± 17 nM.
Next, B5: 30.5 ± 3.4 nM; B6: 13.5 ± 1.5 nM.
Consider B7, for which the Kd was 10.8 ± 0.7 nM.
The value for B8 was 36.9 ± 3.4 nM.
Next, B9: 25 ± 5 nM; B10: 34 ± 7 nM; B11: 8.62 ± 0.31 nM.
Next, B12: 33.3 ± 2.5 nM.
The molecule B13 displayed an equilibrium dissociation constant (Kd) of 16.8 ± 1.8 nM.
With B14, binding was put at a Kd of 7.7 ± 0.6 nM.
The molecule B15 came in with a Kd of 7.14 ± 0.3 nM.
In the case of B16, the Kd was 36 ± 8 nM.
The molecule B17 yielded a Kd of 14.3 ± 0.7 nM.
In turn, B18 gave a Kd of 12.1 ± 1.2 nM.
As for B19, the affinity, expressed as Kd, was 87 ± 13 nM.
Regarding B20, the Kd amounted to 8.6 ± 0.8 nM.
Next, B21: 23.1 ± 2.1 nM; B22: 13.8 ± 1.3 nM; B23: 10.1 ± 0.4 nM.
The value for B24 was 75 ± 10 nM; that for B25 was 15.2 ± 1.7 nM.
Take B26: the Kd amounted to 31.3 ± 1.3 nM.
Next, B27: 8.96 ± 0.33 nM.
Next, B28: 16.5 ± 1.3 nM; B29: 8.54 ± 0.22 nM.
B30 showed a Kd of about 90 nM.
B31 came in with a dissociation constant (Kd) of 13.9 ± 0.8 nM.
The value for B32 was 21.4 ± 2 nM.
